# Source: patent US20070041944A1, “Treating tumors by ENH dislocation of ID proteins” (THE TRUSTEES OF COLUMBIA UNIVERSITY IN THE CITY OF NEW YORK, priority 2005, published 2007)
# T1: Id2 (Homo sapiens, UniProt Q02363)
# T1 construct: expressed in transfected cells; host or cells: Cos-1
# T1 sequence (Q02363 1-134): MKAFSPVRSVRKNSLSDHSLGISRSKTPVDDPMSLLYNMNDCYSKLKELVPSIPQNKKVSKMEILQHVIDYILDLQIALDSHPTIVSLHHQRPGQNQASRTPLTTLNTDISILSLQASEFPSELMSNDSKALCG
# T2: GST-Id1 (Homo sapiens, UniProt P41134)
# T2 construct: made in house; host or cells: E. coli BL21 Star (Invitrogen)
# T2 sequence (P41134 1-155): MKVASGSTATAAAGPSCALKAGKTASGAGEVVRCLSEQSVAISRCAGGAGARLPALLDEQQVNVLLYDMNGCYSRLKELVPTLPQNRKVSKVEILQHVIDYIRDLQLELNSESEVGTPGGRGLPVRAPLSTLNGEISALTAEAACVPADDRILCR
# Assays:
# [1] = biological target: T1, Id2; experiment: Coimmunoprecipitation of Id2 and Flag-tagged ENH in transfected Cos-1 cells; format: binding; conditions: Cos-1 cells transfected with Id2 and Flag-tagged ENH
# Experimental: (§1) GST Pull-Down Assay, Western Blot, and Coimmunoprecipitation: GST fusion proteins were purified from BL21 Star (Invitrogen). GST pull-down assay was performed as described in lavarone, A. et al., (1994), Genes Dev., 8:1270-1284. For Wetern blot analysis, cellular pellets were lysed in ice-cold RIPA buffer (50 mM Tris, pH 7.5/150 mM NaCl/1% Nonidet P-40/0.5% sodium deoxycholate/0.1% SDS) containing Complete Mini protease inhibitor pellet (Roche) and 1 mM PMSF. Lysates were electrophoresed on SDS/PAGE gels and transferred to nitrocellulose membrane (Amersham Pharmacia Biotech). Membranes were stained with antibodies against ENH, Id2 (Santa Cruz Biotechnology), and α-tubulin (Sigma), and blots were developed by using ECLWestem Blotting Detection System (Amersham Pharmacia Biotech). The anti-ENH antibody is a rabbit polyclonal that was produced in collaboration with Zymed against a peptide that is fully conserved in the mouse sequence (KQQNGPPRKHI (SEQ ID NO:1)). Coimmunoprecipitation of Id2 and ENH from cells transfected with pcDNA.3-Id2 and p3XFlag-ENH was performed as described (lavarone, A. et al., (2004), Nature, 432:1040-1045).
# To determine whether Id2 binds ENH in vivo, coimmunoprecipitation experiments were performed after transfecting Id2 and Flag-tagged ENH in Cos-1. Anti-Id2 antibodies precipitated full-length Flag-ENH but not Flag-ENHδLIM (FIG. 2C). […]
# [2] = biological target: T2, GST-Id1; experiment: GST pull-down assay with GST-Id1; format: binding; conditions: in vitro-translated 35S-labeled ENH (FIG. 2B Right)
# Experimental: as §1
# Given the high homology among the HLH domains of the three Id proteins, it was asked whether Id1 and Id3 could also bind ENH in this assay. Indeed, both GST-Id1 and GST-Id3 bound to full-length ENH (FIG. 2B Right).
# [3] = test system: Id2 inhibition of E47-mediated transcription; experiment: E-box-luciferase reporter assay; format: cell-based, human; conditions: E-box-luc with E47, Id2 and increasing amounts of ENH (0.375, 0.5, 0.625 μg); FIG. 6A
# Experimental: Luciferase Assay: The luciferase reporter construct 5xE-box-luciferase (Lasorella, A. et al., (1996) Mol. Cell. Biol., 16:2570-2578) was cotransfected with pcDNA.3-E47 and pcDNA.3 vector or pcDNA.3-Id2 and pcDNA.3-ENH into SK-N-SH cells. pCMV-β-gal was cotransfected for normalization. Twenty-four hours later luciferase and β-galactosidase activities were measured as described (Lasorella, A. et al., (2000) Nature, 407:592-598).
# To test the hypothesis that ENH restrains the inhibitory effects of Id2 on bHLH-mediated transcription by acting as a cytoplasmic retention factor for Id2, luciferase reporter assays were performed with five multimerized E-boxes driving expression of luciferase (E-box-luc). The E-box-luc plasmid was transfected in the presence of mammalian expression vectors for the ubiquitously expressed bHLH protein E47, Id2, and increasing amounts of ENH. Id2 inhibition of E47-mediated transcription was relieved by coexpression of ENH in a dose-dependent manner (FIG. 6A).
molecule,measurement,setting,value
"ENH: actin cytoskeleton-associated PDZ-LIM protein ENH (Enigma Homologue), full-length, SEQ ID NO:4; also used Flag-tagged (protein, listed as Homo sapiens) MSNYSVSLVGPAPWGFRLQGGKDFNMPLTISSLKDGGKAAQANVRIGDVVLSIDGINAQGMTHLEAQNKIKGCTGSLNMTLQRASAAPKPEPVPVQKGEPKEVVKPVPITSPAVSKVTSTNNMAYNKAPRPFGSVSSPKVTSIPSPSSAFTPAHATTSSHASPSPVAAVTPPLFAASGLHANANLSADQSPSALSAGKTAVNVPRQPTVTSVCSETSQELAEGQRRGSQGDSKQQNGPPRKHIVERYTEFYHVPTHSDASKKRLIEDTEDWRPRTGTTQSRSFRILAQITGTEHLKESEADNTKKANNSQEPSPQLASSVASTRSMPESLDSPTSGRPGVTSLTTAAAFKPVGSTGVIKSPSWQRPNQGVPSTGRISNSATYSGSVAPANSALGQTQPSDQDTLVQRAEHIPAGKRTPMCAHCNQVIRGPFLVALGKSWHPEEFNCAHCKNTMAYIGFVEEKGALYCELCYEKFFAPECGRCQRKILGEVINALKQTWHVSCFVCVACGKPIRNNVFHLEDGEPYCETDYYALFGTICHGCEFPIEAGDMFLEALGYTWHDTCFVCSVCCESLEGQTFFSKKDKPLCKKHAHSVNF",precipitation by anti-Id2 antibodies,[1]; Western blot for Flag (FIG. 2C),precipitated
same,Id2 in Flag immunoprecipitates,[1]; Western blot for Id2 (FIG. 2D),contained Id2
same,binding of GST-Id1 to ENH,[2],bound
same,Id2 inhibition of E47-mediated transcription (luciferase activity),[3],relieved
